Experimental data: patent publication US20240391954A1, “MC4R AGONIST PEPTIDES” (The Regents of the University of Michigan, priority 2021, published 2024)
Starred links: 1 amine or outer side, 2 acyl side, 3 side chain; linkers in the order of their positions; H or OH if unused. Positions of bridges follow the written chain, without caps; N, C: chain ends. Non-standard residues stand in square brackets, D forms with d. dPhe(4-NHAc) = 4-acetamido-D-phenylalanine, CC(=O)Nc1ccc(C[C@@H](N[*:1])C(=O)[*:2])cc1; dPhe(4-tBu) = CC(C)(C)c1ccc(C[C@@H](N)C(=O)O)cc1; Phe(4-Br) = N[C@@H](Cc1ccc(Br)cc1)C(=O)O; dPhe(4-Br) = N[C@H](Cc1ccc(Br)cc1)C(=O)O; dPhe(4-I) = N[C@H](Cc1ccc(I)cc1)C(=O)O; d(αMeF) = C[C@@](N)(Cc1ccccc1)C(=O)O; NMeR = CN[C@@H](CCCNC(=N)N)C(=O)O; Nle = CCCC[C@H](N)C(=O)O; R2 = not defined here

Columns and labels:
Assay in all cases: cell-based or functional assay
[1] = biological target: human MC3R (human, UniProt P41968 1-323)
[2] = biological target: T1, human MC4R receptor (human, UniProt P32245 1-332)
[3] = biological target: T1, human MC4R receptor; remark: listed apart in the source

T1 sequence (P32245 whole entry): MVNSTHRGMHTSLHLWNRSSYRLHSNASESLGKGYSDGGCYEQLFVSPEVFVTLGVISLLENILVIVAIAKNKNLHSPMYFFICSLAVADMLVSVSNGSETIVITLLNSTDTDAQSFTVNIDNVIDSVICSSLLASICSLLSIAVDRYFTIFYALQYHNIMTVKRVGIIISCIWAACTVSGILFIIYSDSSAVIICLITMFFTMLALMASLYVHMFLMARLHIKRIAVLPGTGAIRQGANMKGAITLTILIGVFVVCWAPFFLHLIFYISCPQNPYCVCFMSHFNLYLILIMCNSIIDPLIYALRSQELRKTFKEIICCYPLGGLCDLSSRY
human MC3R, sequence (P41968 whole entry): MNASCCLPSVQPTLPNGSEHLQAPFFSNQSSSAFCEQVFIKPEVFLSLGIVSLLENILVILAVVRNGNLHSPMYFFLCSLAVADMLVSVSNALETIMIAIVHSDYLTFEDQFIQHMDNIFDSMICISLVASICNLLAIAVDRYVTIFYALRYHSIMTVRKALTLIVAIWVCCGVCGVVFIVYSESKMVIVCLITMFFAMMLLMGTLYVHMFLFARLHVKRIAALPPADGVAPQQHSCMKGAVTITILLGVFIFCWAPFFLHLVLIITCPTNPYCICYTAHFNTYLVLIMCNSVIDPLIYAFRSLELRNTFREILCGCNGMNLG

| % max activation [1] [%] | cAMP EC50 [1] [nM] | % max activation [2] [%] | cAMP EC50 [2] [nM] | MC4R selectivity vs MC1R [3] | MC4R selectivity vs MC3R [3] | Binder |
| --- | --- | --- | --- | --- | --- | --- |
| 18 | 2.8 | 47 | 2 | 1.31 | 1.36 | Ac-RC[dA][NMeR][dPhe(4-Br)]R[dW]C-NH2 (disulfide 2-8; SMILES CC(=O)N[C@@H](CCCNC(=N)N)C(=O)N[C@H]1CSSC[C@@H](C(N)=O)NC(=O)[C@@H](Cc2c[nH]c3ccccc23)NC(=O)[C@H](CCCNC(=N)N)NC(=O)[C@@H](Cc2ccc(Br)cc2)NC(=O)[C@H](CCCNC(=N)N)N(C)C(=O)[C@@H](C)NC1=O) [CTX-1248] |
| 16 |  | 77 |  | 1 | 1.85 | Ac-RC[dA]R[dPhe(4-Br)]R[dW]CK-NH2 (disulfide 2-8; SMILES CC(=O)N[C@@H](CCCNC(=N)N)C(=O)N[C@H]1CSSC[C@@H](C(=O)N[C@@H](CCCCN)C(N)=O)NC(=O)[C@@H](Cc2c[nH]c3ccccc23)NC(=O)[C@H](CCCNC(=N)N)NC(=O)[C@@H](Cc2ccc(Br)cc2)NC(=O)[C@H](CCCNC(=N)N)NC(=O)[C@@H](C)NC1=O) [CTX-1218] |
| 29 | 12 | 71 | 3.8 | 1.33 | 3.21 | R2-RC[dA]R[dPhe(4-Br)]R[dW]C-NH2 (disulfide 2-8; reading uncertain; also: printed as N-term. Mod. R2; Arg-cyclo(Cys-D-Ala-Arg-D-Phe(4-Br)-Arg-D-Trp-Cys)-NH2) [CTX-1226] |
| 13 | 4 | 69 | 1.5 | 1.12 | 2.73 | Ac-RC[dA]R[dPhe(4-Br)]R[dW]CKP-NH2 (disulfide 2-8; SMILES CC(=O)N[C@@H](CCCNC(=N)N)C(=O)N[C@H]1CSSC[C@@H](C(=O)N[C@@H](CCCCN)C(=O)N2CCC[C@H]2C(N)=O)NC(=O)[C@@H](Cc2c[nH]c3ccccc23)NC(=O)[C@H](CCCNC(=N)N)NC(=O)[C@@H](Cc2ccc(Br)cc2)NC(=O)[C@H](CCCNC(=N)N)NC(=O)[C@@H](C)NC1=O) [CTX-1217] |
| 59 | 7 | 64 | 2.3 | 0.19 | 3.04 | Ac-R[Nle]CH[dPhe(4-Br)]R[dW]C-NH2 (disulfide 3-8; SMILES CCCC[C@H](NC(=O)[C@H](CCCNC(=N)N)NC(C)=O)C(=O)N[C@H]1CSSC[C@@H](C(N)=O)NC(=O)[C@@H](Cc2c[nH]c3ccccc23)NC(=O)[C@H](CCCNC(=N)N)NC(=O)[C@@H](Cc2ccc(Br)cc2)NC(=O)[C@H](Cc2c[nH]cn2)NC1=O) [CTX-1231] |
| 6.3 | 73 | 34 | 4450 | 0.08 | 0.02 | Ac-RC[dA]R[dPhe(4-NHAc)]R[dW]C-NH2 (disulfide 2-8) [CTX-1245] |
| 2.8 | 2.2 | 5.8 | 26 | 0.64 | 0.08 | Ac-RC[dA]R[dPhe(4-tBu)]R[dW]C-NH2 (disulfide 2-8; SMILES CC(=O)N[C@@H](CCCNC(=N)N)C(=O)N[C@H]1CSSC[C@@H](C(N)=O)NC(=O)[C@@H](Cc2c[nH]c3ccccc23)NC(=O)[C@H](CCCNC(=N)N)NC(=O)[C@@H](Cc2ccc(C(C)(C)C)cc2)NC(=O)[C@H](CCCNC(=N)N)NC(=O)[C@@H](C)NC1=O) [CTX-1242] |
|  | 4 |  | 1.9 |  |  | Ac-R[Nle]CR[dPhe(4-Br)]R[dW]C-NH2 (disulfide 3-8; SMILES CCCC[C@H](NC(=O)[C@H](CCCNC(=N)N)NC(C)=O)C(=O)N[C@H]1CSSC[C@@H](C(N)=O)NC(=O)[C@@H](Cc2c[nH]c3ccccc23)NC(=O)[C@H](CCCNC(=N)N)NC(=O)[C@@H](Cc2ccc(Br)cc2)NC(=O)[C@H](CCCNC(=N)N)NC1=O) [CTX-1613] |
| 0.1 | 28 | 55 | 393 | 0.07 | 0.07 | Ac-RC[dA]R[Phe(4-Br)]RWC-NH2 (disulfide 2-8) [CTX-1212] |
| 1.9 | 6.1 | 22 | 14 | 5.08 | 0.45 | Ac-RC[dA]P[dPhe(4-Br)]R[dW]C-NH2 (disulfide 2-8; SMILES CC(=O)N[C@@H](CCCNC(=N)N)C(=O)N[C@H]1CSSC[C@@H](C(N)=O)NC(=O)[C@@H](Cc2c[nH]c3ccccc23)NC(=O)[C@H](CCCNC(=N)N)NC(=O)[C@@H](Cc2ccc(Br)cc2)NC(=O)[C@@H]2CCCN2C(=O)[C@@H](C)NC1=O) [CTX-1249] |
| 19 | 79 | 61 | 998 | 0.24 | 0.08 | Ac-RC[dA]R[dY]R[dW]C-NH2 (disulfide 2-8; SMILES CC(=O)N[C@@H](CCCNC(=N)N)C(=O)N[C@H]1CSSC[C@@H](C(N)=O)NC(=O)[C@@H](Cc2c[nH]c3ccccc23)NC(=O)[C@H](CCCNC(=N)N)NC(=O)[C@@H](Cc2ccc(O)cc2)NC(=O)[C@H](CCCNC(=N)N)NC(=O)[C@@H](C)NC1=O) [CTX-1237] |
| 20 | 4.5 | 76 | 2.3 | 1 | 1.99 | Ac-RC[dA]R[dPhe(4-Br)]R[dW]CRFG-OH (disulfide 2-8; SMILES CC(=O)N[C@@H](CCCNC(=N)N)C(=O)N[C@H]1CSSC[C@@H](C(=O)N[C@@H](CCCNC(=N)N)C(=O)N[C@@H](Cc2ccccc2)C(=O)NCC(=O)O)NC(=O)[C@@H](Cc2c[nH]c3ccccc23)NC(=O)[C@H](CCCNC(=N)N)NC(=O)[C@@H](Cc2ccc(Br)cc2)NC(=O)[C@H](CCCNC(=N)N)NC(=O)[C@@H](C)NC1=O) [CTX-1219] |
| 38 | 9.8 | 79 | 30 | 0.1 | 0.33 | Ac-RC[dA]R[dPhe(4-Br)]R[dW]CR[dF]-NH2 (disulfide 2-8; SMILES CC(=O)N[C@@H](CCCNC(=N)N)C(=O)N[C@H]1CSSC[C@@H](C(=O)N[C@@H](CCCNC(=N)N)C(=O)N[C@H](Cc2ccccc2)C(N)=O)NC(=O)[C@@H](Cc2c[nH]c3ccccc23)NC(=O)[C@H](CCCNC(=N)N)NC(=O)[C@@H](Cc2ccc(Br)cc2)NC(=O)[C@H](CCCNC(=N)N)NC(=O)[C@@H](C)NC1=O) [CTX-1222] |
| 2.1 | 27 | 56 | 592 | 0.07 | 0.05 | Ac-RC[dA]R[Phe(4-Br)]R[dW]C-NH2 (disulfide 2-8) [CTX-1215] |
| 22 | 4.1 | 16 | 2.2 | 0.26 | 1.88 | Ac-R[Nle]CH[dPhe(4-I)]R[dW]C-NH2 (disulfide 3-8; SMILES CCCC[C@H](NC(=O)[C@H](CCCNC(=N)N)NC(C)=O)C(=O)N[C@H]1CSSC[C@@H](C(N)=O)NC(=O)[C@@H](Cc2c[nH]c3ccccc23)NC(=O)[C@H](CCCNC(=N)N)NC(=O)[C@@H](Cc2ccc(I)cc2)NC(=O)[C@H](Cc2c[nH]cn2)NC1=O) [CTX-1233] |
| 10 | 2090 | 8.7 | 185 | 1.06 | 11 | Ac-RC[dA][dR][dPhe(4-Br)]R[dW]C-NH2 (disulfide 2-8) [CTX-1250] |
| 27 | 31 | 81 | 76 | 0.46 | 0.41 | Ac-RC[dA]R[d(αMeF)]R[dW]C-NH2 (disulfide 2-8; SMILES CC(=O)N[C@@H](CCCNC(=N)N)C(=O)N[C@H]1CSSC[C@@H](C(N)=O)NC(=O)[C@@H](Cc2c[nH]c3ccccc23)NC(=O)[C@H](CCCNC(=N)N)NC(=O)[C@@](C)(Cc2ccccc2)NC(=O)[C@H](CCCNC(=N)N)NC(=O)[C@@H](C)NC1=O) [CTX-1240] |
| 21 | 7.2 | 76 | 1.87 | 1.53 | 3.82 | Ac-RC[dA]R[dPhe(4-Br)]R[dW]CRF-NH2 (disulfide 2-8; SMILES CC(=O)N[C@@H](CCCNC(=N)N)C(=O)N[C@H]1CSSC[C@@H](C(=O)N[C@@H](CCCNC(=N)N)C(=O)N[C@@H](Cc2ccccc2)C(N)=O)NC(=O)[C@@H](Cc2c[nH]c3ccccc23)NC(=O)[C@H](CCCNC(=N)N)NC(=O)[C@@H](Cc2ccc(Br)cc2)NC(=O)[C@H](CCCNC(=N)N)NC(=O)[C@@H](C)NC1=O) [CTX-1220] |
